Starred links: 1 amine or outer side, 2 acyl side, 3 side chain; linkers in the order of their positions; H or OH if unused. Non-standard residues stand in square brackets, D forms with d. Groups on a side chain read outwards from the residue. *: point of attachment. C20 diacid = O=C(O)CCCCCCCCCCCCCCCCCCC(=O)*; C18 diacid = O=C(O)CCCCCCCCCCCCCCCCC(=O)*; C16 diacid = O=C(O)CCCCCCCCCCCCCCC(=O)*; γGlu = O=C(O)[C@H](CCC(=O)[*:2])N[*:1]; εLys = N[C@@H](CCCCN[*:1])C(=O)[*:2]; Trx = NC[C@H]1CC[C@H](C(=O)O)CC1; AEEA = NCCOCCOCC(=O)O; Aib = CC(C)(N)C(=O)O
T1: human amylin-3 (a) receptor (human, UniProt P30988 25-474; O60896 24-148)
T1 sequence (looked up) 1: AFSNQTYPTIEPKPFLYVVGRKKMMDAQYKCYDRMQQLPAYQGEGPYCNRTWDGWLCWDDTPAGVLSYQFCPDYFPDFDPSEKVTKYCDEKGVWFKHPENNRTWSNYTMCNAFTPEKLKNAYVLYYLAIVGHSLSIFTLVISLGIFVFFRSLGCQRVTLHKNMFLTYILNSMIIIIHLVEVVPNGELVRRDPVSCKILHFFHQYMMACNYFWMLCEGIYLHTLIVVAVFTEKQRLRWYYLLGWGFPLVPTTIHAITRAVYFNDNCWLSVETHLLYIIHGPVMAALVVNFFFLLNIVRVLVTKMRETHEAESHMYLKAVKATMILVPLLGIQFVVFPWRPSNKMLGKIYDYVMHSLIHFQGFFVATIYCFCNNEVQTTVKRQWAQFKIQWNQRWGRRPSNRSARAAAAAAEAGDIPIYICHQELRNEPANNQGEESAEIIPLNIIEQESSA
T1 sequence (looked up) 2: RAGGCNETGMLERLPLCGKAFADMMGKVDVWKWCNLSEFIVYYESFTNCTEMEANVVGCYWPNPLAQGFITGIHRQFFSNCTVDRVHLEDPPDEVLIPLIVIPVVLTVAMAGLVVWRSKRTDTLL


What was measured:
[1] = target: T1, human amylin-3 (a) receptor; experiment: cell-based or functional assay
human GLP-1 receptor = human GLP-1 receptor (human, UniProt P43220 24-463); experiment: cell-based or functional assay

Binder | Human AmyR3 potency [EC50 (pM)] [1] [pM] | Human GLP-1R potency [EC50 (pM)] (human GLP-1 receptor) [pM]
Compound 0285 (peptide) peptide: H[Aib]EGTFTSDVSSYLEEQAAREFIAWLVRGK([AEEA-AEEA-γGlu-C16 diacid])GGGGGEASELSTAALGRLSAELHELATLPRTETGK([AEEA-AEEA-γGlu-C16 diacid])GSP-NH2 | 78.9 | 19
Compound 0297 (peptide) peptide: H[Aib]EGTFTSDVSSYLEEQAAREFIAWLVRK([AEEA-AEEA-γGlu-C16 diacid])RGGGGGASELSTAALGRLSK([AEEA-AEEA-γGlu-C16 diacid])ELHELATLPRTETGSGSP-NH2 | 46 | 30.2
Compound 0434 (peptide) peptide: HWEGTFTSDVSSYLEEK([εLys-AEEA-AEEA-γGlu-Trx-C20 diacid])AAREFIEWLVRGRGEASELSTAALGRLSAELHELATLPRTETGSGSP-NH2 | 13.9 | 11.8
Compound 0431 (peptide) peptide: HAEGTFTSDK([AEEA-AEEA-γGlu-Trx-C20 diacid])SSYLEEQAAREFIEWLVRGRGEASELSTAALGRLSAELHELATLPRTETGSGSP-NH2 | 11.9 | 10.9
Compound 0437 (peptide) peptide: HWEGTFTSDVSSYLEEQAARK([εLys-AEEA-AEEA-γGlu-Trx-C20 diacid])FIEWLVRGRGEASELSTAALGRLSAELHELATLPRTETGSGSP-NH2 | 11.8 | 12
Compound 0294 (peptide) peptide: H[Aib]EGTFTSDVSSYLEK([AEEA-AEEA-γGlu-C16 diacid])QAAREFIAWLVRGRGGGGGASELSTAALGRLSK([AEEA-AEEA-γGlu-C16 diacid])ELHELATLPRTETGSGSP-NH2 | 34.3 | 13.7
Compound 0045 (peptide) peptide: H[Aib]EGTFTSDVSSYLEGQAAKEFIAWLVRGRK([εLys-AEEA-AEEA-γGlu-C18 diacid])GGEASELSTAALGRLSAELHELATLPRTETGSGSP-NH2 | 25.9 | 19.4
Compound 0299 (peptide) peptide: H[Aib]EGTFTSDVSSYLEEK([AEEA-AEEA-γGlu-C16 diacid])AAREFIAWLVRGRGGGGGEASELSTAALGRLSAELHK([AEEA-AEEA-γGlu-C16 diacid])LATLPRTETGSGSP-NH2 | 11.5 | 6
Compound 0416 (peptide) peptide: HAEGTFTSK([AEEA-AEEA-γGlu-Trx-C20 diacid])VSSYLEEQAAREFIEWLVRGRGEASELSTAALGRLSAELHELATLPRTETGSGSP-NH2 | 18.3 | 105
Compound 0044 (peptide) peptide: H[Aib]EGTFTSDVSSYLEGQAAK([εLys-AEEA-AEEA-γGlu-C18 diacid])EFIAWLVRGRGGGEASELSTAALGRLSAELHELATLPRTETGSGSP-NH2 | 9.1 | 16
Compound 0396 (peptide) peptide: H[Aib]EGTFTSDVSSYLEEK([AEEA-AEEA-γGlu-C16 diacid])AAREFIAWLVRGRGGGGGEASELSTAALGRLSAELHELK([AEEA-AEEA-γGlu-C16 diacid])TLPRTETGSGSP-NH2 | 32.8 | 4.8
Compound 0284 (peptide) peptide: H[Aib]EGTFTSDVSSYLEEQAAREFIAWLVRGK([AEEA-AEEA-γGlu-C16 diacid])GGGGGEASELSTAALGRLSAELHELATLK([AEEA-AEEA-γGlu-C16 diacid])RTETGSGSP-NH2 | 32.8 | 41.7
Compound 0296 (peptide) peptide: H[Aib]EGTFTSDVSSYLEEQAARK([AEEA-AEEA-γGlu-C16 diacid])FIAWLVRGRGGGGGASELSTAALGRLSK([AEEA-AEEA-γGlu-C16 diacid])ELHELATLPRTETGSGSP-NH2 | 29.9 | 4
Compound 0397 (peptide) peptide: H[Aib]EGTFTSDVSSYLEEK([AEEA-AEEA-γGlu-C16 diacid])AAREFIAWLVRGRGGGGGEASELSTAALGRLSAELHELATLK([AEEA-AEEA-γGlu-C16 diacid])RTETGSGSP-NH2 | 18.5 | 3.8
Compound 0417 (peptide) peptide: H[Aib]EGTFTSK([AEEA-AEEA-γGlu-Trx-C20 diacid])VSSYLEEQAAREFIEWLVRGRGEASELSTAALGRLSAELHELATLPRTETGSGSP-NH2 | 21 | 97.8
Compound 0414 (peptide) peptide: HAEGTFTSDVSSYLEEK([AEEA-AEEA-γGlu-Trx-C20 diacid])AAREFIEWLVRGRGEASELSTAALGRLSAELHELATLPRTETGSGSP-NH2 | 17.7 | 11.2
Compound 0280 (peptide) peptide: H[Aib]EGTFTSDVSSYLEEQAAREFIAWLVRGK([AEEA-AEEA-γGlu-C16 diacid])GGGGGEASELSTAALGRLSAELHK([AEEA-AEEA-γGlu-C16 diacid])LATLPRTETGSGSP-NH2 | 18 | 34.3
Compound 0295 (peptide) peptide: H[Aib]EGTFTSDVSSYLEEK([AEEA-AEEA-γGlu-C16 diacid])AAREFIAWLVRGRGGGGGASELSTAALGRLSK([AEEA-AEEA-γGlu-C16 diacid])ELHELATLPRTETGSGSP-NH2 | 32.7 | 4.8
Compound 0292 (peptide) peptide: H[Aib]EGTFTSDK([AEEA-AEEA-γGlu-C16 diacid])SSYLEEQAAREFIAWLVRGRGGGGGASELSTAALGRLSK([AEEA-AEEA-γGlu-C16 diacid])ELHELATLPRTETGSGSP-NH2 | 33.8 | 12
Compound 0415 (peptide) peptide: H[Aib]EGTFTSDVSSYLEEK([AEEA-AEEA-γGlu-Trx-C20 diacid])AAREFIEWLVRGRGEASELSTAALGRLSAELHELATLPRTETGSGSP-NH2 | 16.1 | 10.3
Compound 0433 (peptide) peptide: HWEGTFTSDK([εLys-AEEA-AEEA-γGlu-Trx-C20 diacid])SSYLEEQAAREFIEWLVRGRGEASELSTAALGRLSAELHELATLPRTETGSGSP-NH2 | 12.9 | 30.7
Compound 0436 (not fully specified (residue 20)) peptide: H[Aib]EGTFTSDVSSYLEEQAAKEFIEWLVRGRGEASELSTAALGRLSAELHELATLPRTETGSGSP-NH2 | 12.3 | 15.2
Compound 0435 (peptide) peptide: HWEGTFTSDVSSYLEEQAAK([εLys-AEEA-AEEA-γGlu-Trx-C20 diacid])EFIEWLVRGRGEASELSTAALGRLSAELHELATLPRTETGSGSP-NH2 | 22.3 | 92.4
Compound 0411 (peptide) peptide: H[Aib]EGTFTSDVSSYLEEK([AEEA-AEEA-γGlu-C16 diacid])AAREFIAWLVRGRGGGGGEASELSTAALGRLSAELHELATLPRTETGK([AEEA-AEEA-γGlu-C16 diacid])GSP-NH2 | 45.9 | 3.5
Compound 0281 (peptide) peptide: H[Aib]EGTFTSDVSSYLEEQAAREFIAWLVRGK([AEEA-AEEA-γGlu-C16 diacid])GGGGGEASELSTAALGRLSAELHELK([AEEA-AEEA-γGlu-C16 diacid])TLPRTETGSGSP-NH2 | 114 | 35.2

From US20260132182A1 (published 2026)
